Experiment [1] concerns the target doubly stabilized microtubules (GMPCPP and paclitaxel) (UniProt Q6B856). Kind of experiment: co-sedimentation.
The target is the same in experiment [2]. Kind of experiment: co-sedimentation. This is another data set of the same source.
Experiment [3] concerns the target GMPCPP-stabilized HyLite 647/biotin-labeled microtubules (bovine) (UniProt Q6B856). Kind of experiment: single-molecule TIRF microscopy.
The target of experiment [4] is X-rhodamine-labeled dynamic microtubules nucleated from GMPCPP-stabilized Cy5 MT seeds (UniProt Q6B856). Kind of experiment: dynamic MT seed assay.
Experiment [5] addresses GMPCPP-stabilized HyLite 647/biotin-labeled microtubules (bovine) (UniProt Q6B856). Kind of experiment: single-molecule TIRF microscopy. This is another data set of the same source.

Like-named read-outs stand apart in the source and are kept apart here.

For “YPet-Kif18B(605-828)-NLS1/2 (from UniProt Q86Y91-6 605-828) (domain or fragment)”, the fold increase in the Kd for MT binding relative to YPet-Kif18B(605-828) in experiment [1] was 2 fold.

As for “YPet-Kif18B(605-828)-His6 (from UniProt Q86Y91-6 605-828) (domain or fragment)”, in experiment [1], the fold increase in the Kd for MTs with importin α/β against without stood at 9 fold.

“GFP-Kif18B (full-length human Kif18B N-terminally tagged with EGFP) (from UniProt Q86Y91-6 1-833) (natural protein)”: the figures for the percent pelleted with MTs in experiment [2] and in experiment [1] were 79% and above 90%, respectively. Also, the dwell time at MT plus ends was determined as 5.39 s in experiment [3] and 5.56 s in experiment [5]. Besides, the mean dwell time on the MT lattice was found to be 2.3 s in experiment [3] and 1.77 s in experiment [5]. Moreover, in experiment [4], the percent of two-sided MTs with GFP-Kif18B binding events, with importin α/β was 73%. The substance further showed a percent of two-sided MTs with bound GFP-Kif18B in experiment [4] of 46%.

Source of the values: publication PMC10092650.
